Results: patent US20230227508A1 (MIT, published 2023)

Assays:
[1] = target: T1, σN-NpuN-Mdm2* bait fusion (residues 17-124 of Mdm2) (UniProt Q00987 17-124); assay: split intein σ factor circuit in E. coli, sfGFP read by flow cytometry
T1 construct: range 17-124; also called Mdm2-intein; pTHSS-2132

[2] = target: T1, σN-NpuN-Mdm2* bait fusion (residues …); assay: cell-based or functional assay

T1 sequence (Q00987 other isoform, or with tags, fused parts or gaps limits assumed): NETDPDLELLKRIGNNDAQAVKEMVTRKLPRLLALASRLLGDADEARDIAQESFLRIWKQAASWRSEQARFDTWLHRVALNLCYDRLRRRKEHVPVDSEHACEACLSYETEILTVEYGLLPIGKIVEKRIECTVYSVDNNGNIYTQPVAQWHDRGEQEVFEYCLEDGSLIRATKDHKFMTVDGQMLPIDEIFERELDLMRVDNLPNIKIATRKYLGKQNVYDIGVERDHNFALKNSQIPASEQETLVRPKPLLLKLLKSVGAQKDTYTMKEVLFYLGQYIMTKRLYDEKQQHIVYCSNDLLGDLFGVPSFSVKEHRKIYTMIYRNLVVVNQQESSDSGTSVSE

B1: ACE2*-NpuC-σC peptide fusion (N-terminal residues 19-56 of ACE2) (other, not shown: small tags and cut ends)
chain: STIEEQAKTFLDKFNHEAEDLFYQSSLASWNYNTNITERGGKGGPGGRGGVGGGGGIGGGFIASNCWLDTRPAPDEQLEASAQSRRMAQALDQLPDRQREAIVLQYYQELSNTEAAALMQISVEALESLLSRARRNLRSHLAEAPGADLSGRRKP
notes: also called ACE2a1; pAMK-857
- binding result [1]: no binding
- drop of the fluorescent output of the circuit relative to the PMI/Mdm2* pair [2]: 15 fold
